± gives the uncertainty stated by the source.
Assay: protein stability index of a GFP-peptide fusion (yeast GPS) (PSI 1-4); higher = more stable; sorted into four equal gates, so the index is relative within each strain
How it was run: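 The protein stability index combines read frequencies across sorting gates, each weighted by its gate number and then summed. To obtain those frequencies, a pooled yeast library of GFP fusions to tiled 17-residue yeast protein peptides, on a plasmid also expressing Cherry, was grown to mid-log phase in leucine-free medium. The cells were sorted into four equal gates by GFP/Cherry ratio before plasmid amplification by PCR and Illumina sequencing.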

ADVHFLDCDGGFIDASC [RRP45]
protein stability index (doa10∆): 3.12 ± 0.09
protein stability index (pdr5∆): 2.9 ± 0.098
protein stability index (san1∆): 3.14 ± 0.055
protein stability index (ubr1∆): 2.9 ± 0.054

SEIARTYLLKNDLVKAR [RPN9]
protein stability index (doa10∆): 3.29 ± 0.2
protein stability index (san1∆): 3.09 ± 0.12

LPKFLTVQYVRFFWKRS [UBP6]
protein stability index (doa10∆): 1.62 ± 0.04
protein stability index (pdr5∆): 1.35 ± 0.035
protein stability index (san1∆): 1.24 ± 0.085
protein stability index (ubr1∆): 1.19 ± 0.032

DLEWQELTSFSSQPLEP [DSN1]
protein stability index (doa10∆): 3.05 ± 0.054
protein stability index (pdr5∆): 3.05 ± 0.053
protein stability index (san1∆): 2.98 ± 0.054
protein stability index (ubr1∆): 2.98 ± 0.036

VKTPKKTKYILQRPTAT [CSN12]
protein stability index (doa10∆): 2.89 ± 0.069
protein stability index (pdr5∆): 3.03 ± 0.076
protein stability index (san1∆): 2.6 ± 0.079
protein stability index (ubr1∆): 2.43 ± 0.21

ARQFGYVILTTSAGIMD [RPS22A]
protein stability index (doa10∆): 1.37 ± 0.048
protein stability index (pdr5∆): 1.33 ± 0.045
protein stability index (san1∆): 1.17 ± 0.094
protein stability index (ubr1∆): 1.25 ± 0.037

IPRNSPLSDLKKRSQAK [RPC82]
protein stability index (doa10∆): 2.65 ± 0.26
protein stability index (pdr5∆): 3.17 ± 0.22

QFLRLIFVSILSDRANK [ARP9]
protein stability index (doa10∆): 1.64 ± 0.065
protein stability index (pdr5∆): 1.65 ± 0.075
protein stability index (san1∆): 2.18 ± 0.087
protein stability index (ubr1∆): 1.2 ± 0.027

DWESDLHIHLNQILQTE [YDL116W/NUP84]
protein stability index (doa10∆): 2.69 ± 0.1
protein stability index (pdr5∆): 3.07 ± 0.087
protein stability index (san1∆): 2.77 ± 0.092
protein stability index (ubr1∆): 2.81 ± 0.15

TDGVIGSRTTTNHVLEV [RPO31]
protein stability index (doa10∆): 3.17 ± 0.094
protein stability index (pdr5∆): 3.62 ± 0.094
protein stability index (san1∆): 3.19 ± 0.13
protein stability index (ubr1∆): 3.54 ± 0.088

LRRVNARYVIATSTKVS [RPL6A]
protein stability index (doa10∆): 1.45 ± 0.058
protein stability index (pdr5∆): 1.34 ± 0.047
protein stability index (san1∆): 1.25 ± 0.095
protein stability index (ubr1∆): 1.14 ± 0.035

NVPWPQNSYADKVTSQA [RPP1]
protein stability index (doa10∆): 2.04 ± 0.094
protein stability index (pdr5∆): 2.19 ± 0.15
protein stability index (san1∆): 1.83 ± 0.1
protein stability index (ubr1∆): 2.25 ± 0.096

TLLKNLRKKLNFKLCQA [YJR042W/NUP85]
protein stability index (doa10∆): 2.01 ± 0.12
protein stability index (pdr5∆): 2.12 ± 0.097
protein stability index (san1∆): 1.13 ± 0.23

GSNYNPYFPGGSIAMAR [CYT1]
protein stability index (doa10∆): 2.08 ± 0.082
protein stability index (pdr5∆): 2.4 ± 0.13
protein stability index (san1∆): 2.59 ± 0.093
protein stability index (ubr1∆): 2.35 ± 0.048

IFNGETLEDALRRIITD [GRR1]
protein stability index (doa10∆): 1.96 ± 0.084
protein stability index (pdr5∆): 1.96 ± 0.059
protein stability index (san1∆): 2.07 ± 0.07
protein stability index (ubr1∆): 2.07 ± 0.064

ELPKFILSDSPLELSAP [DIS3]
protein stability index (doa10∆): 2.5 ± 0.095
protein stability index (pdr5∆): 3.37 ± 0.17
protein stability index (san1∆): 2.85 ± 0.19
protein stability index (ubr1∆): 3.04 ± 0.092

FEAAVKMSDGFNGADIR [RPT4]
protein stability index (doa10∆): 3.66 ± 0.18
protein stability index (pdr5∆): 3.46 ± 0.091
protein stability index (san1∆): 3.34 ± 0.053
protein stability index (ubr1∆): 3.39 ± 0.09

WLEEYHPKLIKNKSGKI [FAS1]
protein stability index (doa10∆): 1.59 ± 0.12
protein stability index (pdr5∆): 1.83 ± 0.075
protein stability index (san1∆): 1.42 ± 0.092
protein stability index (ubr1∆): 1.67 ± 0.046

MFTATMTPVIEKIAAGY [PRP28]
protein stability index (doa10∆): 2.2 ± 0.13
protein stability index (pdr5∆): 1.81 ± 0.11
protein stability index (san1∆): 1.5 ± 0.15
protein stability index (ubr1∆): 2.35 ± 0.076

VTKWTNQLTESASHFEQ [YJL041W/NSP1]
protein stability index (doa10∆): 2.85 ± 0.13
protein stability index (pdr5∆): 3.19 ± 0.099
protein stability index (san1∆): 3.16 ± 0.091
protein stability index (ubr1∆): 2.83 ± 0.098

TNPKLKSEFDDLSLNIH [YMR129W/POM152]
protein stability index (doa10∆): 2.96 ± 0.071
protein stability index (pdr5∆): 3.14 ± 0.056
protein stability index (san1∆): 3.02 ± 0.038
protein stability index (ubr1∆): 3.17 ± 0.05

DNGLGPLKYAPHLPFSK [SWI3]
protein stability index (doa10∆): 3.13 ± 0.058
protein stability index (pdr5∆): 3.22 ± 0.069
protein stability index (san1∆): 2.85 ± 0.07
protein stability index (ubr1∆): 3.21 ± 0.058

DIENKEEEYDETHETNI [YAR002W/NUP60]
protein stability index (doa10∆): 3.34 ± 0.071
protein stability index (pdr5∆): 3.21 ± 0.087
protein stability index (san1∆): 3.42 ± 0.083
protein stability index (ubr1∆): 3.33 ± 0.064

ADEPVKASLLLHVLVAH [FAS2]
protein stability index (doa10∆): 1.85 ± 0.043
protein stability index (pdr5∆): 1.59 ± 0.035
protein stability index (san1∆): 1.3 ± 0.059
protein stability index (ubr1∆): 1.43 ± 0.028

ARVKAFDRHCNMVLENV [SMD2]
protein stability index (doa10∆): 1.53 ± 0.091
protein stability index (pdr5∆): 2.3 ± 0.087
protein stability index (san1∆): 1.39 ± 0.21
protein stability index (ubr1∆): 1.87 ± 0.085

ADAVTKDLKLRREDEII [REC8]
protein stability index (doa10∆): 3.08 ± 0.11
protein stability index (pdr5∆): 3.31 ± 0.1
protein stability index (san1∆): 3.3 ± 0.065
protein stability index (ubr1∆): 3.03 ± 0.062

Reference: the supplement of paper PMC9732359
